Experimental data from the Immune Epitope Database (IEDB).

What was measured:
[1] = biological target: HLA-B*51:01; test: IEDB peptide-MHC binding, purified MHC/competitive/radioactivity; filed as Kd, often an IC50 or EC50 that approximates it; ≥ and ≤ were set here for values at or beyond the usual limits of such assays
[2] = biological target: HLA-B*08:01; test: as above
[3] = biological target: HLA-A*30:01; test: as above
[4] = biological target: HLA-A*31:01; test: IEDB peptide-MHC binding, purified MHC/direct/fluorescence; filed as Kd, often an IC50 or EC50 that approximates it; ≥ and ≤ were set here for values at or beyond the usual limits of such assays
[5] = biological target: HLA-A*03:01; test: as above; settings: source organism: Entamoeba histolytica HM-1:IMSS
[6] = biological target: HLA-A*30:02; test: IEDB peptide-MHC binding, purified MHC/competitive/radioactivity; filed as Kd, often an IC50 or EC50 that approximates it; ≥ and ≤ were set here for values at or beyond the usual limits of such assays; settings: source organism: Mammarenavirus juninense
[7] = biological target: HLA-A*32:01; test: as above; settings: source organism: Mammarenavirus juninense
[8] = biological target: HLA-A*26:01; test: as above; settings: source organism: Mammarenavirus juninense
[9] = biological target: HLA-A*29:02; test: as above; settings: source organism: Mammarenavirus juninense
[10] = biological target: HLA-A*01:01; test: as above; settings: source organism: Mammarenavirus juninense
[11] = biological target: HLA-B*08:01; test: IEDB peptide-MHC binding, purified MHC/direct/fluorescence; filed as Kd, often an IC50 or EC50 that approximates it; ≥ and ≤ were set here for values at or beyond the usual limits of such assays; settings: source organism: SARS-CoV1
[12] = biological target: HLA-B*15:01; test: as above; settings: source organism: SARS-CoV1
[13] = biological target: HLA-A*02:01; test: as above; settings: source organism: SARS-CoV1
[14] = biological target: HLA-A*11:01; test: as above; settings: source organism: SARS-CoV1
[15] = biological target: HLA-B*27:05; test: as above; settings: source organism: SARS-CoV1
[16] = biological target: HLA-B*53:01; test: IEDB peptide-MHC binding, purified MHC/competitive/radioactivity; filed as Kd, often an IC50 or EC50 that approximates it; ≥ and ≤ were set here for values at or beyond the usual limits of such assays; settings: source organism: Dengue virus 2 Peru/IQT2913/1996
[17] = biological target: HLA-B*44:03; test: as above; settings: source organism: Dengue virus 1 Brazil/97-11/1997
[18] = biological target: HLA-B*18:01; test: IEDB peptide-MHC binding, purified MHC/direct/fluorescence; filed as Kd, often an IC50 or EC50 that approximates it; ≥ and ≤ were set here for values at or beyond the usual limits of such assays; settings: source organism: Dengue virus 1 Singapore/S275/1990
[19] = biological target: HLA-B*44:02; test: as above; settings: source organism: Dengue virus 1 Singapore/S275/1990
[20] = source organism: Dengue virus 1 Brazil/97-11/1997
[21] = source organism: Dengue virus 3 Martinique/1243/1999
[22] = source organism: Dengue virus 2 Jamaica/1409/1983
[23] = source organism: Vaccinia virus WR

Q: IPPTAGILA was tested. Which Kd [1, 20] did it give?
A: The Kd was 5550 nM.

Q: Which Kd [1, 21] does the source give for NPHLPEKKI here?
A: Its Kd is no less than 28800 nM.

Q: With LKGMSYAMCL as the sequence, how does the Kd ([2]; source organism: Dengue virus 3 Singapore/8120/1995) read?
A: The Kd was 438 nM.

Q: For RARISQGAG, which Kd [3, 22] is on record?
A: Its Kd is 126 nM.

Q: For ASRRSWPLN, which Kd ([3]; source organism: Dengue virus 4 Dominica/814669/1981) is on record?
A: The Kd was 50.2 nM.

Q: How did the Kd ([4]; source organism: Entamoeba histolytica HM-1:IMSS) turn out when LWNFIHQQR was run?
A: Its Kd is 12.2 nM.

Q: And the Kd [5]?
A: Its Kd is no less than 20000 nM.

Q: Which Kd [1, 22] does the source give for KPWDVVPMV here?
A: The Kd was 1440 nM.

Q: How did the Kd [3, 22] turn out when TTRNGEPHM was run?
A: The Kd was 1200 nM.

Q: How did the Kd ([2]; source organism: Dengue virus 3 Sri Lanka/1266/2000) turn out when VRQMEGEGVL was run?
A: The Kd was 1710 nM.

Q: Which Kd ([3]; source organism: Vaccinia virus Copenhagen) does the source give for KTDFSNIRA here?
A: Its Kd is 209 nM.

Q: Which Kd [3, 23] does the source give for KNKIPFLLL here?
A: Its Kd is 92.4 nM.

Q: Which Kd [6] does the source give for ASAHVRQSEY here?
A: The Kd was 5.79 nM.

Q: What about the Kd [7] of the same sequence?
A: The Kd was 827 nM.

Q: And the Kd [8]?
A: Its Kd is no less than 24700 nM.

Q: What about the Kd ([3]; source organism: Mammarenavirus juninense) of the same sequence?
A: The Kd was 2730 nM.

Q: What about the Kd [9] of the same sequence?
A: Its Kd is 102 nM.

Q: What about the Kd [10] of the same sequence?
A: Its Kd is 4.53 nM.

Q: RLKTRIRNL was tested. Which Kd [2, 23] did it give?
A: Its Kd is 0.694 nM.

Q: Which Kd [2, 23] does the source give for MMKWIISIL here?
A: Its Kd is 1.28 nM.

Q: What does the source list for KLFIRQEEV?
A: Kd [11]: 2850 nM; Kd [12]: 14900 nM; Kd ([4]; source organism: SARS-CoV1): 130 nM; Kd [13]: 400 nM

Q: How did the Kd [1, 21] turn out when LPLPWTSGAT was run?
A: Its Kd is no less than 21400 nM.

Q: How did the Kd [14] turn out when EHYVRITGL was run?
A: Its Kd is no less than 24300 nM.

Q: And the Kd [11]?
A: The Kd was 3530 nM.

Q: What about the Kd [15] of the same sequence?
A: The Kd was no less than 46900 nM.

Q: With FCSHHFHQL as the sequence, how does the Kd [2, 20] read?
A: Its Kd is 178 nM.

Q: Which Kd [16] does the source give for QPESNILDI here?
A: Its Kd is 1010 nM.

Q: What about the Kd ([1]; source organism: Dengue virus 2 Peru/IQT2913/1996) of the same sequence?
A: The Kd was no less than 46400 nM.

Q: Which Kd [17] does the source give for LEFFLMVLL here?
A: Its Kd is 15600 nM.

Q: What about the Kd [18] of the same sequence?
A: Its Kd is 189 nM.

Q: And the Kd [19]?
A: Its Kd is no less than 20000 nM.
